Values of other authors in paper PMC7590900.

Target: CXCR7 (Homo sapiens) (UniProt P25106)
Sequence of UniProt P25106 (P25106 whole entry): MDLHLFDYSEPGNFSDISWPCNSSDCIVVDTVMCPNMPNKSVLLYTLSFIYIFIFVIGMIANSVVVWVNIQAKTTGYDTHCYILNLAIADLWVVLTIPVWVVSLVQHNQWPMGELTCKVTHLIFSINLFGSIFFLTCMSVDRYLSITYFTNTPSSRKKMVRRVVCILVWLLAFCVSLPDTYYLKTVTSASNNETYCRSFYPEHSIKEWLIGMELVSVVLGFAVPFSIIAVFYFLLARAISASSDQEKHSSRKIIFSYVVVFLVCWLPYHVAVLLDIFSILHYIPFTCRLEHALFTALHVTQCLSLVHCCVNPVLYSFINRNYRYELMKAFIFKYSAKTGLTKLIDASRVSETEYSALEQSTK

## CXCL11 (from UniProt O14625)
  Kd: 3.5 nM
